# Tests used:
# Assay in all cases: cell-based or functional assay
# [1] = molecular target: HIV-1 Env of isolate MGRM-C-004 (pseudovirus) (HIV-1 isolate MGRM-C-004, subtype C)
# [2] = molecular target: HIV-1 Env of isolate MGRM-C-020 (pseudovirus) (HIV-1 isolate MGRM-C-020, subtype C)
# [3] = molecular target: HIV-1 Env of isolate MG RM-D-004 (subtype D) (HIV-1)
# [4] = molecular target: HIV-1 Env of isolate MG RM-D-021 (subtype D) (HIV-1)
# [5] = molecular target: HIV-1 Env of isolate MG RM-AG-002 (HIV-1)
# [6] = molecular target: HIV-1 MGRM-Chronic-B-024 Env (pseudovirus) (HIV-1)
# [7] = molecular target: HIV-1 Env of isolate MG RM-D-019 (subtype D) (HIV-1)
# [8] = molecular target: HIV-1 MGRM-Chronic-B-008 Env (pseudovirus) (HIV-1)
# [9] = molecular target: HIV-1 SC422661.8 Env (pseudovirus) (HIV-1)
# [10] = molecular target: HIV-1 MGRM-Chronic-B-020 Env (pseudovirus) (HIV-1)
# [11] = molecular target: HIV-1 MGRM-Chronic-B-001 Env (pseudovirus) (HIV-1)
# [12] = molecular target: HIV-1 JR-CSF Env F468A (HIV-1 (isolate JR-CSF)) (UniProt P20871)
# [13] = molecular target: HIV-1 JR-CSF Env R480A (HIV-1 (isolate JR-CSF)) (UniProt P20871)
# [14] = molecular target: HIV-1 APV6 envelope glycoprotein (Env) on pseudovirus (HIV-1)
# [15] = molecular target: HIV-1 JR-CSF Env N478A (HIV-1 (isolate JR-CSF)) (UniProt P20871)
# [16] = molecular target: HIV-1 Env of pseudovirus CAAN.A2 (Acute), clade B (HIV-1)
# [17] = molecular target: HIV-1 Env of isolate MGRM-D-019 (HIV-1)
# [18] = molecular target: HIV-1 MGRM-F1-012 Env (pseudovirus) (HIV-1)
# [19] = molecular target: HIV-1 Env of isolate MGRM-G-027 (clade G pseudovirus) (HIV-1)
# [20] = molecular target: HIV-1 Env of isolate MGRM-D-003 (HIV-1)
# [21] = molecular target: HIV-1 94KE105 envelope glycoprotein (Env) (HIV-1)
# [22] = molecular target: HIV-1 MGRM-C-012 Env (HIV-1)
# [23] = molecular target: HIV-1 Env of isolate MGRM-D-011 (HIV-1)
# [24] = molecular target: HIV-1 Env of isolate 92UG024 (HIV-1)
# [25] = molecular target: HIV-1 APV-6 envelope protein (Env) on pseudovirus (HIV-1)
# [26] = molecular target: HIV-1 Env of isolate MGRM-D-013 (clade D) (HIV-1)
# [27] = molecular target: HIV-1 Env of isolate MGRM-G-013 (subtype G) (HIV-1)
# [28] = molecular target: HIV-1 Env of isolate 93UG077 (HIV-1)
# [29] = molecular target: HIV-1 Env of isolate 92WR009 (HIV-1)
# [30] = molecular target: HIV-1 Env of isolate MGRM-C-020 (HIV-1)
# [31] = molecular target: HIV-1 Env of isolate MGRM-C-014 (HIV-1)
# [32] = molecular target: HIV-1 Env of isolate MGRM-D-029 (subtype D), on pseudovirus (HIV-1)
# [33] = molecular target: HIV-1 Env of isolate MGRM-F1-017 (subtype F), on pseudovirus (HIV-1)
# [34] = molecular target: HIV-1 Env of isolate TRJ04551.58 (HIV-1)
# [35] = molecular target: HIV-1 Env of isolate MGRM-AG-003 (CRF_AG), on pseudovirus (HIV-1)
# [36] = molecular target: HIV-1 Env of isolate MGRM-F1-023 (subtype F), on pseudovirus (HIV-1)
# [37] = molecular target: HIV-1 Env of isolate MGRM-C-010 (HIV-1)
# [38] = molecular target: HIV-1 Env of isolate MGRM-F1-018 (subtype F), on pseudovirus (HIV-1)
# [39] = molecular target: HIV-1 Env of isolate MGRM-A-012 (clade A), on pseudovirus (HIV-1)
# [40] = molecular target: HIV-1 Env of isolate 93TH305 (pseudovirus) (HIV-1 isolate 93TH305, subtype B)
# [41] = molecular target: HIV-1 Env of isolate 92BR020 (pseudovirus) (HIV-1 isolate 92BR020, subtype B)
# [42] = molecular target: HIV-1 Env of isolate MGRM-A-011 (clade A), on pseudovirus (HIV-1)
# 5345_I01 (PGT-137) (antibody), sequence (VH): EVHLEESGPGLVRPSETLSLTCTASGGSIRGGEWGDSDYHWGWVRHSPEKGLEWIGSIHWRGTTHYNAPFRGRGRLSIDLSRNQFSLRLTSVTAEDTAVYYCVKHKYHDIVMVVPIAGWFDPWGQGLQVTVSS
# 5345_I01 (PGT-137) (antibody), sequence (VL): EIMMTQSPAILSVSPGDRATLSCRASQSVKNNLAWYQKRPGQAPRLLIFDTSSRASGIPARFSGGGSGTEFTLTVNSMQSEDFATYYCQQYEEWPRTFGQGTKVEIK
# PGT-142 (4995_E20) (antibody), sequence (VH): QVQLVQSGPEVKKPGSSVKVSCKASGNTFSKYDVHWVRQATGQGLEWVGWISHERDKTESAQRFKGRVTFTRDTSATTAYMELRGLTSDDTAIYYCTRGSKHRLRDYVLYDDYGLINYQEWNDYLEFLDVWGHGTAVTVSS
# PGT-142 (4995_E20) (antibody), sequence (VL): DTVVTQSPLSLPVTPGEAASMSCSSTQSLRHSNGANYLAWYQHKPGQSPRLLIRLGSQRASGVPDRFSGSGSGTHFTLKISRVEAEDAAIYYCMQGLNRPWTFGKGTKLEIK
substance,measurement,setting,value
4838_L06 (PGT-121) (antibody),IC50 (µg/mL) neutralization,[1],0.011 µg/mL
same,IC50 (µg/mL) neutralization,[2],> 50 µg/mL
same,"IC50 (µg/mL), pseudovirus neutralization",[3],> 50 µg/mL
same,"IC50 (µg/mL), pseudovirus neutralization",[4],5.33 µg/mL
same,neutralization IC50,[5],> 50 µg/mL
same,"IC50, pseudovirus neutralization",[6],0.195 µg/mL
same,"IC50 (µg/mL), pseudovirus neutralization",[7],> 50 µg/mL
same,"IC50, pseudovirus neutralization",[8],0.007 µg/mL
same,"IC50, pseudovirus neutralization",[9],0.098 µg/mL
same,"IC50, pseudovirus neutralization",[10],0.004 µg/mL
same,"IC50, pseudovirus neutralization",[11],0.102 µg/mL
4858_P08 (PGT-123) (antibody),IC50 (µg/mL) neutralization,[1],0.009 µg/mL
same,IC50 (µg/mL) neutralization,[2],> 50 µg/mL
same,Fold IC50 increase relative to wild-type,[12],0.5 fold
same,"IC50 (µg/mL), pseudovirus neutralization",[3],> 50 µg/mL
same,"IC50 (µg/mL), pseudovirus neutralization",[4],11.1 µg/mL
same,neutralization IC50,[5],> 50 µg/mL
same,Fold IC50 increase relative to wild-type,[13],1.7 fold
same,"IC50, pseudovirus neutralization",[6],> 50 µg/mL
same,"IC50 (µg/mL), pseudovirus neutralization",[7],> 50 µg/mL
same,"IC50, pseudovirus neutralization",[8],0.01 µg/mL
same,"IC50 (ug/ml), neutralizing activity",[14],0.0327 µg/mL
same,"IC50, pseudovirus neutralization",[14],0.0328 µg/mL
same,"IC80, pseudovirus neutralization",[14],0.145 µg/mL
same,IC90 (pseudovirus neutralization),[14],0.339 µg/mL
same,"IC95, pseudovirus neutralization",[14],0.726 µg/mL
same,"IC50, pseudovirus neutralization",[9],0.039 µg/mL
same,Fold IC50 increase relative to wild-type,[15],0.6 fold
same,"IC50, pseudovirus neutralization",[10],0.005 µg/mL
same,"IC50, pseudovirus neutralization",[11],0.15 µg/mL
5145_B14 (PGT-127) (antibody),IC50 (µg/mL) neutralization,[1],0.532 µg/mL
same,IC50 (µg/mL) neutralization,[2],> 50 µg/mL
same,Fold IC50 increase relative to wild-type,[12],3 fold
same,"IC50 (µg/mL), pseudovirus neutralization",[3],> 50 µg/mL
same,"IC50 (µg/mL), pseudovirus neutralization",[4],0.056 µg/mL
same,neutralization IC50,[5],> 50 µg/mL
same,Fold IC50 increase relative to wild-type,[13],0.2 fold
same,"IC50, pseudovirus neutralization",[6],> 50 µg/mL
same,"IC50 (µg/mL), pseudovirus neutralization",[7],> 50 µg/mL
same,"IC50, pseudovirus neutralization",[8],21.5 µg/mL
same,"IC50, pseudovirus neutralization",[9],36.7 µg/mL
same,Fold IC50 increase relative to wild-type,[15],1.2 fold
same,"IC50, pseudovirus neutralization",[10],0.05 µg/mL
same,"IC50, pseudovirus neutralization",[11],> 50 µg/mL
1496_C09 (PG9) (TCN-109) (antibody),"IC50 (µg/ml), pseudovirus neutralization",[16],5.67 µg/mL
same,"IC50 (µg/mL), pseudovirus neutralization",[17],0.038 µg/mL
same,"IC50 (µg/ml), pseudovirus neutralization",[18],0.01 µg/mL
same,"IC50 (µg/ml), pseudovirus neutralization",[19],0.01 µg/mL
same,"IC50 (µg/mL), pseudovirus neutralization",[20],0.033 µg/mL
same,"IC50 (ug/ml), neutralizing activity",[14],0.214 µg/mL
same,IC50 neutralization,[14],0.214 µg/mL
same,"IC80, neutralization",[14],1.13 µg/mL
same,"IC90, neutralization",[14],3.21 µg/mL
same,"IC95, neutralization",[14],9.65 µg/mL
same,"IC50 (µg/ml), pseudovirus neutralization",[21],29.6 µg/mL
same,IC50,[22],0.24 µg/mL
same,"IC50 (µg/mL), pseudovirus neutralization",[23],0.071 µg/mL
same,"IC50 (µg/mL), pseudovirus neutralization",[24],1.86 µg/mL
same,neutralization IC50,[25],0.0869 µg/mL
same,"IC50 (µg/ml), pseudovirus neutralization",[26],0.06 µg/mL
PGT-142 (4995_E20) (antibody),neutralization IC50,[27],> 50 µg/mL
PGV04 (antibody),"IC50 (µg/mL), pseudovirus neutralization",[17],0.35 µg/mL
same,IC50,[28],0.083 µg/mL
same,"IC50 (µg/mL), pseudovirus neutralization",[20],> 50 µg/mL
same,"IC50 (µg/mL), pseudovirus neutralization",[23],0.025 µg/mL
same,"IC50 (µg/mL), pseudovirus neutralization",[24],0.201 µg/mL
same,neutralization IC50,[27],0.168 µg/mL
PGT-121 (antibody),"IC50 (µg/mL), pseudovirus neutralization",[28],0.019 µg/mL
same,"IC50 (µg/mL), pseudovirus neutralization",[29],1.74 µg/mL
4877_D15 (PGT-122) (antibody),IC50 (µg/mL) neutralization,[1],0.02 µg/mL
same,IC50 (µg/mL) neutralization,[2],14 µg/mL
same,"IC50 (µg/mL), pseudovirus neutralization",[3],> 50 µg/mL
same,"IC50 (µg/mL), pseudovirus neutralization",[4],11.7 µg/mL
same,neutralization IC50,[5],> 50 µg/mL
same,"IC50, pseudovirus neutralization",[6],2.31 µg/mL
same,"IC50 (µg/mL), pseudovirus neutralization",[7],> 50 µg/mL
same,"IC50, pseudovirus neutralization",[8],0.017 µg/mL
same,"IC50 (ug/ml), neutralizing activity",[14],0.0851 µg/mL
same,"IC50, pseudovirus neutralization",[9],0.103 µg/mL
same,"IC50, pseudovirus neutralization",[10],0.005 µg/mL
same,"IC50, pseudovirus neutralization",[11],0.138 µg/mL
5345_I01 (PGT-137) (antibody),IC50,[30],> 50 µg/mL
same,IC50,[31],> 50 µg/mL
same,"IC50, pseudovirus neutralization",[32],> 50 µg/mL
same,IC50,[17],> 50 µg/mL
same,"IC50, pseudovirus neutralization",[33],> 50 µg/mL
same,IC50,[34],> 50 µg/mL
same,"IC50, single-round pseudovirus neutralization",[35],> 50 µg/mL
same,neutralization IC50,[28],> 50 µg/mL
same,"IC50, pseudovirus neutralization",[36],> 50 µg/mL
same,IC50,[37],> 50 µg/mL
same,IC50,[20],> 50 µg/mL
same,neutralization IC50,[29],> 50 µg/mL
same,"IC50, pseudovirus neutralization",[38],> 50 µg/mL
same,"IC50, single-round pseudovirus neutralization",[39],> 50 µg/mL
same,IC50,[23],6.3 µg/mL
same,IC50,[24],0.106 µg/mL
same,IC50 (µg/mL) neutralization,[40],> 50 µg/mL
same,IC50 (µg/mL) neutralization,[41],7.81 µg/mL
same,"IC50, single-round pseudovirus neutralization",[42],> 50 µg/mL
